Measured values reported in patent publication US20180171024A1 (ADICET BIO, published 2018).

Columns and labels:
[1] = molecular target: T1, HLA-A2/MART1(26) on T2 cells (human); test: flow cytometry, T2 cells loaded with MART1 peptide
T1 construct: whole, on cells

[2] = molecular target: T2, HLA-A2/MAGE-A4 230-239 complex on cells (human); test: flow cytometry, peptide-loaded T2 cells (10^-5 M)
T2 construct: whole, on cells; also called MAGE-A4 peptide; HLA-A2+/MAGE-A4+ cells

[3] = molecular target: T3, single-chain recombinant HLA-A2/Tyrosinase369-377 complex (human); test: SPR, IgG captured by anti-mouse IgG, analyte scHLA-A2/Tyrosinase (EM3-TyrD)
T3 construct: also called scHLA-A2/Tyrosinase; HLA-A2/TyrD369-377
Protocol: (§1) Immobilization of IgG TCR-like antibody was performed on a GLM (General Layer Medium) chip (Bio-Rad Laboratories, Hercules, Calif., USA) at 25° C. in the vertical orientation and the continuous running buffer was PBST (10 mM Na-phosphate, 150 mM NaCl, and 0.005% Tween 20, pH 7.4). Five channels were activated with 50 μl of a mixture of 0.04 M N-ethyl-N′-(3-dimethylaminopropyl) carbodiimide (EDC) and 0.01 M sulfo-N-hydroxysuccinimide (Sulfo-NHS) at a flow rate of 30 μl/min. The anti-mouse or human IgG/NeutrAvidin was diluted in 10 mM sodium acetate buffer pH 4.5 to a final concentration of 25 μg/ml and 150 μl were injected followed by an injection of 150 μl of 1 M ethanolamine-HCl pH 8.5. The IgG TCRL antibody/purified biotinylated single-chain recombinant HLA-A2/Tyrosinase/WT1/MAGE-A4/MAGE-A9/PAP complex ligand was diluted in PBST to 5-10 μg/ml and 90 μl were injected in the vertical orientation with a flow rate of 30 μl/min. The sixth channel remained empty to serve as a reference. […] Running buffer was injected simultaneously in the sixth channel for double referencing to correct for loss of the captured antibodies from the chip sensor surface during the experiment. All binding sensorgrams were collected, processed and analyzed using the integrated ProteOn Manager (Bio-Rad Laboratories, Hercules, USA) software. […]

[4] = molecular target: T3, single-chain recombinant …; test: SPR (ProteOn), IgG captured via anti-mouse IgG, scHLA-A2/Tyrosinase as analyte; apparent affinity
Protocol: as §1

[5] = molecular target: T2, HLA-A2/MAGE-A4 230-239 complex on cells; test: flow cytometry, peptide-loaded T2 cells (10^-5 M); remark: listed apart in the source
[6] = molecular target: T4, PAP112-A1; test: alanine scan, flow cytometry, peptide-loaded T2 cells (10^-5 M), antibody 10 µg/ml
T4 construct: also called PAP A1; HLA-A2/PAP A1 on T2 cells

[7] = molecular target: T5, PAP112-A9 (Homo sapiens); test: as above
T5 construct: cell surface;cell surface complex; also called PAP A9; HLA-A2/PAP A9 on T2 cells

[8] = molecular target: T1, HLA-A2/MART1(26) on T2 cells; test: flow cytometry, peptide-loaded T2 cells (10^-5 M)
[9] = molecular target: T2, HLA-A2/MAGE-A4 230-239 complex on cells; test: flow cytometry, T2 cells loaded with 10^-4 M peptide
[10] = molecular target: T6, single-chain recombinant HLA-A2/WT1 126-134 complex (human); test: SPR (ProteOn), IgG captured via anti-mouse IgG, scHLA-A2/WT1 as analyte
T6 construct: also called scHLA-A2/WT1; MHC-WT1 peptide complex
Protocol: as §1

[11] = molecular target: T6, single-chain recombinant HLA-A2/WT1 …; test: SPR, B47B6 IgG captured via anti-mouse IgG, analyte scHLA-A2/WT1
Protocol: Purified IgGs were immobilized indirectly to the SPR sensor chip with anti-mouse. Analyte was purified recombinant single-chain HLA-A2/WT1 complexes generated by in vitro refolding of E. coli expressed scHLA-A2 complexes.
Immobilization of IgG TCR-like antibody was performed on a GLM (General Layer Medium) chip (Bio-Rad Laboratories, Hercules, Calif., USA) at 25° C. in the vertical orientation and the continuous running buffer was PBST (10 mM Na-phosphate, 150 mM NaCl, and 0.005% Tween 20, pH 7.4). Five channels were activated with 50 μl of a mixture of 0.04 M N-ethyl-N′-(3-dimethylaminopropyl) carbodiimide (EDC) and 0.01 M sulfo-N-hydroxysuccinimide (Sulfo-NHS) at a flow rate of 30 μl/min. The anti-mouse or human IgG/NeutrAvidin was diluted in 10 mM sodium acetate buffer pH 4.5 to a final concentration of 25 μg/ml and 150 μl were injected followed by an injection of 150 μl of 1 M ethanolamine-HCl pH 8.5. The IgG TCRL antibody/purified biotinylated single-chain recombinant HLA-A2/Tyrosinase/WT1/MAGE-A4/MAGE-A9/PAP complex ligand was diluted in PBST to 5-10 μg/ml and 90 μl were injected in the vertical orientation with a flow rate of 30 μl/min. The sixth channel remained empty to serve as a reference. […] All binding sensorgrams were collected, processed and analyzed using the integrated ProteOn Manager (Bio-Rad Laboratories, Hercules, USA) software. […]

[12] = molecular target: T7, HLA-A2/MAGE-A4-A2 on T2 cells (human); test: flow cytometry (MFI), T2 cells loaded with Ala-mutated peptide
T7 construct: whole, on cells

[13] = molecular target: T8, HLA-A2/MAGE-A4-A4 on T2 cells (human); test: as above
T8 construct: whole, on cells

[14] = molecular target: T9, HLA-A2/MAGE-A4-A5 on T2 cells (human); test: as above
T9 construct: whole, on cells

[15] = molecular target: T10, HLA-A2/MAGE-A4-A6 on T2 cells (human); test: as above
T10 construct: whole, on cells

[16] = molecular target: T11, HLA-A2/MAGE-A4-A7 on T2 cells (human); test: as above
T11 construct: whole, on cells

[17] = molecular target: T12, MAGE-A4-A1; test: alanine scan, flow cytometry, peptide-loaded T2 cells (10^-5 M), antibody 10 µg/ml
T12 construct: also called HLA-A2/MAGE-A4-A1 on T2 cells
Protocol: (§2) FIG. 55: Epitope specificity determination by Alanine scanning mutagenesis. The mutant MAGE-A4 peptides with alanine substitutions at positions 1, 2, 3, 4, 5, 6, 7, 8 and 9 were synthesized. […] The native and mutant MAGE-A4 peptides were loaded onto T2 cells APCs at a concentration of 10⁻⁵ M for 12 hrs at 37° C. […] MFI values for cells loaded with mutant and wild type peptides were compared. The relative effect of each Ala substitution was expressed as percentage of the binding to native wild-type peptide.

[18] = molecular target: T13, MAGE-A4-A3; test: as above
T13 construct: also called HLA-A2/MAGE-A4-A3 on T2 cells
Protocol: as §2

[19] = molecular target: T14, MAGE-A4-A8; test: as above
T14 construct: also called HLA-A2/MAGE-A4-A8 on T2 cells
Protocol: as §2

[20] = molecular target: T15, MAGE-A4-A9; test: as above
T15 construct: also called HLA-A2/MAGE-A4-A9 on T2 cells
Protocol: as §2

[21] = molecular target: T16, MAGE-A4-A10; test: as above
T16 construct: also called HLA-A2/MAGE-A4-A10 on T2 cells
Protocol: as §2

[22] = molecular target: T17, single-chain recombinant HLA-A2/MAGE-A4 230-239 complex (human); test: SPR (ProteOn); text: IgG captured via anti-mouse IgG, scHLA-A2/MAGE-A4 as analyte (FIG. 54 legend: complex on NeutrAvidin, Fab as analyte)
T17 construct: also called scHLA-A2/MAGE-A4

B1: 905-2-D7 TCR-like antibody (IgG) (antibody, V domains shown)
VH: QVQLKESGPGLVAPSQSLSITCTVSGFSLTSYGVHWVRQPPGKGLEWLGVIWAGGTTNYNSALMSRLSISRDNSKSQVFLEMNSLQTDDTAIYYCARDGHFHFDFWGQGTTLTVSS
VL: DIQMTQSPASLSVSVGETVTITCRASDIIYSNLAWYQQKQGKSPQLLVYAATNLAAGVPSRFSGSGSGTQYSLKINSLQSEDFGTYYCQHFWGSSISFGSGTKLEIKR
notes: also called Tyr D7
binding result [1]: no binding (tested: 10 µg/ml) | binding result [2]: no binding (tested: 10 µg/ml)

B2: 906-11-D11 TCR-like antibody (IgG) (antibody, V domains shown)
VH: not shown
VL: DIQMTQSPSSLSASLGGKVTITCKASQDIHNYIAWYQHKPVKGPRLLIHYTSTLQPGTPSRFSGSGSGRDYSFSISNLEPEDIATYYCLQYDNLWTFGGGTKLEIKR
notes: also called Tyr D11
binding result [1]: no binding (tested: 10 µg/ml) | binding result [2]: no binding (tested: 10 µg/ml) | Kd [3]: 4.14 nM | Kd [4]: 4.1 nM

B3: D10A3 TCR-like antibody (IgG) (antibody, V domains shown)
VH: EVQLQQFGTELVKPGASVKISCKASGYTFTDYNMDWVKQSHGKSLEWIGDINPNYDTTTYNQKFKGKATLTVDKSSSTAYMELRSLTSEDTAVFYCARRNYGNYVGFDFWGQGTTLTVSS
VL: NIVLTQTPKFLLVSAGDRVSITCKASQRVNNDVAWYQQKPGQSPKLLIYYASNRYTGVPDRFTGSGYGTDFTFTISTVQAEDLAVYFCQQDYSSPFTFGSGTKLEIKR
notes: also called PAP D10A3
binding result [5]: no binding (tested: 10 µg/ml) | % of PAP112 binding [6]: 83% | % of PAP112 binding [7]: 1%

B4: B47B6 TCR-like antibody (IgG) (antibody, V domains shown)
VH: EVQLVESGGGLVKPGGSLKLSCAASGFVFSSYDMSWVRQAQEKRLEWVAYMSSGGGTYYPDTVKGRFTISRDNAKNTLHLQMSSLKSEDTAMYYCARHDEITNFDYWGQGTTLTVSS
VL: DIVLTQSPATLSVSPGDSVSLSCRASQSISNSLHWYQQKSHESPRLLIKYASQSISGIPSRFSGSGSGTDFTLSINSVETEDFGMYFCQQSYSWPLTFGAGSKLELKR
notes: also called WT1 B47B6
binding result [8]: no binding (tested: 10 µg/ml) | binding result [9]: no binding | Kd [10]: 4.4 nM | Kd [11]: 4.37 nM

B5: C106B9 TCR-like antibody (IgG) (antibody, V domains shown)
VH: QVQLQQSGGEVMKPGASVKLSCKATGYTFTGYWIEWIKQRPGHGLEWIGEILPGSGGTNYNEKFKGKATFTAHTSSNTAYMQLSSLTTEDSAIYYCARDSNSFTYWGQGTLVTVSS
VL: QIVLTQSPAIMSASPGEKVTITCSVSSSVDYIHWFQQKPGTSPKFWIYSTSILASGVPARFSGSGSGTSYSLTISRMEAEDAATYYCQQRSSYPPTFGSGTKLEIKR
notes: also called MAGE-A4 C106B9
percent decrease in binding vs wild-type peptide [12]: 33% | percent decrease in binding vs wild-type peptide [13]: 90% | percent decrease in binding vs wild-type peptide [14]: 90% | percent decrease in binding vs wild-type peptide [15]: 90% | percent decrease in binding vs wild-type peptide [16]: 90% | % of MAGE-A4 binding [17]: 106% | % of MAGE-A4 binding [18]: 1% | % of MAGE-A4 binding [19]: 168% | % of MAGE-A4 binding [20]: 79% | % of MAGE-A4 binding [21]: 4% | Kd [22]: 8.8 nM
